Tests used:
[1] = target: non-targeted IgG-IL2 (interleukin-2 fused to the C-terminus of a heavy chain of a germline antibody, which is not binding to a target); experiment: bridging ELISA, IgG-IL2-Bi and -Dig, binder 0.00 ng/mL (blank)
[2] = target: non-targeted IgG-IL2 (interleukin-2 fused to the C-terminus of a heavy chain of a germline antibody, which is not binding to a target); experiment: bridging ELISA, IgG-IL2-Bi and -Dig, binder 0.5 ng/mL assay / 10 ng/mL matrix
[3] = target: non-targeted IgG-IL2 (interleukin-2 fused to the C-terminus of a heavy chain of a germline antibody, which is not binding to a target); experiment: bridging ELISA, IgG-IL2-Bi and -Dig, binder 1.0 ng/mL assay / 20 ng/mL matrix
[4] = target: non-targeted IgG-IL2 (interleukin-2 fused to the C-terminus of a heavy chain of a germline antibody, which is not binding to a target); experiment: bridging ELISA, IgG-IL2-Bi and -Dig, binder 16 ng/mL assay / 313 ng/mL matrix
[5] = target: non-targeted IgG-IL2 (interleukin-2 fused to the C-terminus of a heavy chain of a germline antibody, which is not binding to a target); experiment: bridging ELISA, IgG-IL2-Bi and -Dig, binder 2.0 ng/mL assay / 39 ng/mL matrix
[6] = target: non-targeted IgG-IL2 (interleukin-2 fused to the C-terminus of a heavy chain of a germline antibody, which is not binding to a target); experiment: bridging ELISA, IgG-IL2-Bi and -Dig, binder 63 ng/mL assay / 1250 ng/mL matrix
[7] = target: drug antibody (capture and tracer of the bridging immunoassay of FIGS. 2, 7 and 8; not named); experiment: bridging immunoassay, drug antibody as capture and tracer, binder at 80 ng/ml
[8] = target: non-targeted IgG-IL2 (interleukin-2 fused to the C-terminus of a heavy chain of a germline antibody, which is not binding to a target); experiment: bridging ELISA, IgG-IL2-Bi and -Dig, binder 250 ng/mL assay / 5000 ng/mL matrix
[9] = target: drug antibody (capture and tracer of the bridging immunoassay of FIGS. 2, 7 and 8; not named); experiment: bridging immunoassay, drug antibody as capture and tracer, binder at 1000 ng/ml
[10] = target: TCB (T-cell bispecific format) drug antibody; experiment: bridging ELISA, drug-Bi and drug-Dig, human pooled serum, binder 1.0 ng/mL assay / 20 ng/mL matrix
[11] = target: non-targeted IgG-IL2 (interleukin-2 fused to the C-terminus of a heavy chain of a germline antibody, which is not binding to a target); experiment: as above
[12] = target: targeted IgG-IL2 (interleukin-2 fused to the C-terminus of a heavy chain of an antibody specifically binding to a therapeutic target); experiment: as above
[13] = target: TCB (T-cell bispecific format) drug antibody; experiment: bridging ELISA, drug-Bi and drug-Dig, human pooled serum, binder 3.9 ng/mL assay / 78 ng/mL matrix
[14] = target: non-targeted IgG-IL2 (interleukin-2 fused to the C-terminus of a heavy chain of a germline antibody, which is not binding to a target); experiment: as above
[15] = target: targeted IgG-IL2 (interleukin-2 fused to the C-terminus of a heavy chain of an antibody specifically binding to a therapeutic target); experiment: as above
[16] = target: TCB (T-cell bispecific format) drug antibody; experiment: bridging ELISA, drug-Bi and drug-Dig, human pooled serum, binder 0.12 ng/mL assay / 2.4 ng/mL matrix
[17] = target: non-targeted IgG-IL2 (interleukin-2 fused to the C-terminus of a heavy chain of a germline antibody, which is not binding to a target); experiment: as above
[18] = target: targeted IgG-IL2 (interleukin-2 fused to the C-terminus of a heavy chain of an antibody specifically binding to a therapeutic target); experiment: as above
[19] = target: non-targeted IgG-IL2 (interleukin-2 fused to the C-terminus of a heavy chain of a germline antibody, which is not binding to a target); experiment: bridging ELISA, drug-Bi and drug-Dig, human pooled serum, binder 125 ng/mL assay / 2500 ng/mL matrix
[20] = target: targeted IgG-IL2 (interleukin-2 fused to the C-terminus of a heavy chain of an antibody specifically binding to a therapeutic target); experiment: as above
[21] = target: TCB (T-cell bispecific format) drug antibody; experiment: bridging ELISA, drug-Bi and drug-Dig, human pooled serum, binder 250 ng/mL assay / 5000 ng/mL matrix
[22] = target: non-targeted IgG-IL2 (interleukin-2 fused to the C-terminus of a heavy chain of a germline antibody, which is not binding to a target); experiment: as above
[23] = target: targeted IgG-IL2 (interleukin-2 fused to the C-terminus of a heavy chain of an antibody specifically binding to a therapeutic target); experiment: as above
[24] = target: TCB (T-cell bispecific format) drug antibody; experiment: bridging ELISA, drug-Bi and drug-Dig, human pooled serum, binder 500 ng/mL assay / 10000 ng/mL matrix
[25] = target: non-targeted IgG-IL2 (interleukin-2 fused to the C-terminus of a heavy chain of a germline antibody, which is not binding to a target); experiment: as above
[26] = target: targeted IgG-IL2 (interleukin-2 fused to the C-terminus of a heavy chain of an antibody specifically binding to a therapeutic target); experiment: as above

signal [AU] [1]: 0.053 AU
signal [AU] [2]: 0.0825 AU
signal [AU] [3]: 0.114 AU
signal [AU] [4]: 0.996 AU
signal [AU] [5]: 0.165 AU
signal [AU] [6]: 2.85 AU
signal-to-noise ratio (S/N) [7]: 4.5
signal [AU] [8]: 3.04 AU
signal-to-noise ratio (S/N) [9]: 83.6
signal [AU] [10]: 0.12 AU
signal [AU] [11]: 0.0485 AU
signal [AU] [12]: 0.0975 AU
signal [AU] [13]: 0.35 AU
signal [AU] [14]: 0.088 AU
signal [AU] [15]: 0.261 AU
signal [AU] [16]: 0.0555 AU
signal [AU] [17]: 0.0395 AU
signal [AU] [18]: 0.044 AU
signal [AU] [19]: 1.4 AU
signal [AU] [20]: 3.05 AU
signal [AU] [21]: 2.99 AU
signal [AU] [22]: 2.17 AU
signal [AU] [23]: 2.99 AU
signal [AU] [24]: 2.99 AU
signal [AU] [25]: 2.81 AU
signal [AU] [26]: 3.01 AU
B1: multivalent anti-PG antibody derived from clone 1.7.24 (mixed Pool 2, 3, 4) (antibody, V domains shown)
VH: EVKLLESGGGLVQPGGSLKLSCAASGFDFSRYWMNWVRQAPGKGLEWIGEITPDSSTINYTPSLKDKFIISRDNAKNTLYLQMIKVRSEDTALYYCVRPYDYGAWFASWGQGTLVTVSA
VL: QAVVTQESALTTSPGETVTLTCRSSTGAVTTSNYANWVQEKPDHLFTGLIGGTNKRAPGVPARFSGSLIGDKAALTITGAQTEDEAIYFCALWYSNHWVFGGGTKLTVL
modifications: lysine amines derivatised with SATP or MHS and cross-linked (sites not given)
